Here are results for nine molecules from patent publication US20160136299A1 (published 2016).

The target of experiment [1] is SAM conjugate (~1.6 GalNAc) (S10). Kind of experiment: SPR; ~1.6 GalNAc.
The target of experiment [2] is SAM conjugate (~8 gp) (S5). As to the kind of experiment: SPR; trivalent galactose glycopeptide conjugate.
The target in experiment [3] is SAM conjugate (~0.8 GalNAc) (S9). Kind of experiment: SPR; ~0.8 GalNAc. (SPR reads the build-up and loss of mass on a sensor chip optically.)
A further experiment concerns the target Control enzyme (S4). As to the kind of experiment: SPR.
Experiment [4] addresses CD-52 peptide 741. Kind of experiment: SPR.
The target of experiment [5] is CD-52 peptide 741. Kind of experiment: SPR. This is another data set of the same source.

Read-outs that look alike come from different tables or passages of the source.

B1: ASGPR receptor subunit H1 (receptor)
chain: QNSQLQEELRGLRETFSNFTASTEAQVKGLSTQGGNVGRKMKSLESQLEKQQKDLSEDHSSLLLHVKQFVSDLRSLSCQMAALQGNGSERTCCPVNWVEHERSCYWFSRSGKAWADADNYCRLEDAHLVVVTSWEEQKFVQHHIGPVNTWMGLHDQNGPWKWVDGTDYETGFKNWRPEQPDDWYGHGLGGGEDCAHFTDDGRWNDDVCQRPYRWVCETELDKASQEPPLL
In general, koff refers to a measure of how fast the partners let go of each other. For the molecule B1, the koff in experiment [1] turned out to be 0.000296 s⁻¹; in experiment [2], 0.0387 s⁻¹; in experiment [3], 0.00107 s⁻¹; with Control enzyme (S4), 0.0515 s⁻¹.

B2: A114N (antibody)
heavy: not shown
light: DIVMTQTPLSLSVTPGQPASISCKSSQSLLYSNGKTYLNWLLQKPGQSPQRLIYLVSKLDSGVPDRFSGSGSGTDFTLKISRVEAEDVGVYYCVQGTHLHTFGQGTRLEIKRTVAAPSVFIFPPSDEQLKSGTASVVCLLNNFYPREAKVQWKVDNALQSGNSQESVTEQDSKDSTYSLSSTLTLSKADYEKHKVYACEVTHQGLSSPVTKSFNRGEC
modifications: additional N-linked glycan at N114 (Kabat)
As usually defined, the Kd is the equilibrium constant for the complex coming apart. Low values mean a tighter complex, high ones a looser complex. As to B2, in the experiment with CD-52 peptide 741 [4], the dissociation constant (Kd) was found to be 2.4 nM.

B3: Y436T (antibody)
heavy: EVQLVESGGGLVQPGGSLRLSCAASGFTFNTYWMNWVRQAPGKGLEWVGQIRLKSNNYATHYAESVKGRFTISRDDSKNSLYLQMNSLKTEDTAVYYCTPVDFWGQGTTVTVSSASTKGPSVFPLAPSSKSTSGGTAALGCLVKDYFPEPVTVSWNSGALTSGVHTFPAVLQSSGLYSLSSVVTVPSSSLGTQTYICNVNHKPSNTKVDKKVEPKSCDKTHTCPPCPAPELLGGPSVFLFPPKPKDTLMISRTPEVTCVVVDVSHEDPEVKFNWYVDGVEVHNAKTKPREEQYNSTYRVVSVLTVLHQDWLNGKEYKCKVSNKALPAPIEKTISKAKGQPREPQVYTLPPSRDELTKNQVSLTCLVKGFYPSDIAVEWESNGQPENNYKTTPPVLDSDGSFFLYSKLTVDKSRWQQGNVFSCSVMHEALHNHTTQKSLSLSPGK
light: DIVMTQTPLSLSVTPGQPASISCKSSQSLLYSNGKTYLNWLLQKPGQSPQRLIYLVSKLDSGVPDRFSGSGSGTDFTLKISRVEAEDVGVYYCVQGTHLHTFGQGTRLEIKRTVAAPSVFIFPPSDEQLKSGTASVVCLLNNFYPREAKVQWKVDNALQSGNSQESVTEQDSKDSTYSLSSTLTLSKADYEKHKVYACEVTHQGLSSPVTKSFNRGEC
B3 displayed a dissociation constant (Kd) with CD-52 peptide 741 [5] of 1.95 nM.

B4: WT 2C3 (antibody)
heavy: not shown
light: DIVMTQTPLSLSVTPGQPASISCKSSQSLLYSNGKTYLNWLLQKPGQSPQRLIYLVSKLDSGVPDRFSGSGSGTDFTLKISRVEAEDVGVYYCVQGTHLHTFGQGTRLEIKRTVAAPSVFIFPPSDEQLKSGTASVVCLLNNFYPREAKVQWKVDNALQSGNSQESVTEQDSKDSTYSLSSTLTLSKADYEKHKVYACEVTHQGLSSPVTKSFNRGEC
On to B4, for which the dissociation constant (Kd) with CD-52 peptide 741 [5] was 1.75 nM; in the experiment with CD-52 peptide 741 [4], 2.1 nM.

B5: S442N (antibody)
heavy: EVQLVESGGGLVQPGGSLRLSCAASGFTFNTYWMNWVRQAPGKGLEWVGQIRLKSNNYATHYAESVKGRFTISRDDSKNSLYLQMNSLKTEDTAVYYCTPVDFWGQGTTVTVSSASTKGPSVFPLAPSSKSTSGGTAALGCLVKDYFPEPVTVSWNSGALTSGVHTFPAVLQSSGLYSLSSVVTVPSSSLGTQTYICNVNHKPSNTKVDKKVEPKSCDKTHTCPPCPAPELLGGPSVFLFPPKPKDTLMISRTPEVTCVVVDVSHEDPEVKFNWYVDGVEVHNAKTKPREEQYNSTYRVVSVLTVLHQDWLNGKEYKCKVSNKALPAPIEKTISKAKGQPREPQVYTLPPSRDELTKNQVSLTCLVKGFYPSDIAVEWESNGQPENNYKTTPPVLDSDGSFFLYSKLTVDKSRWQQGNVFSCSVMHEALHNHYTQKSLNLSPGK
light: DIVMTQTPLSLSVTPGQPASISCKSSQSLLYSNGKTYLNWLLQKPGQSPQRLIYLVSKLDSGVPDRFSGSGSGTDFTLKISRVEAEDVGVYYCVQGTHLHTFGQGTRLEIKRTVAAPSVFIFPPSDEQLKSGTASVVCLLNNFYPREAKVQWKVDNALQSGNSQESVTEQDSKDSTYSLSSTLTLSKADYEKHKVYACEVTHQGLSSPVTKSFNRGEC
B5 came in with a Kd with CD-52 peptide 741 [5] of 1.85 nM.

B6: Y436S (antibody)
heavy: not shown
light: DIVMTQTPLSLSVTPGQPASISCKSSQSLLYSNGKTYLNWLLQKPGQSPQRLIYLVSKLDSGVPDRFSGSGSGTDFTLKISRVEAEDVGVYYCVQGTHLHTFGQGTRLEIKRTVAAPSVFIFPPSDEQLKSGTASVVCLLNNFYPREAKVQWKVDNALQSGNSQESVTEQDSKDSTYSLSSTLTLSKADYEKHKVYACEVTHQGLSSPVTKSFNRGEC
B6: the dissociation constant Kd with CD-52 peptide 741 [5] came out at 1.73 nM.

B7: NGT (antibody)
heavy: not shown
light: DIVMTQTPLSLSVTPGQPASISCKSSQSLLYSNGKTYLNWLLQKPGQSPQRLIYLVSKLDSGVPDRFSGSGSGTDFTLKISRVEAEDVGVYYCVQGTHLHTFGQGTRLEIKRTVAAPSVFIFPPSDEQLKSGTASVVCLLNNFYPREAKVQWKVDNALQSGNSQESVTEQDSKDSTYSLSSTLTLSKADYEKHKVYACEVTHQGLSSPVTKSFNRGEC
In the experiment with CD-52 peptide 741 [5], B7 displayed a Kd of 1.35 nM.

B8: S440N (antibody)
heavy: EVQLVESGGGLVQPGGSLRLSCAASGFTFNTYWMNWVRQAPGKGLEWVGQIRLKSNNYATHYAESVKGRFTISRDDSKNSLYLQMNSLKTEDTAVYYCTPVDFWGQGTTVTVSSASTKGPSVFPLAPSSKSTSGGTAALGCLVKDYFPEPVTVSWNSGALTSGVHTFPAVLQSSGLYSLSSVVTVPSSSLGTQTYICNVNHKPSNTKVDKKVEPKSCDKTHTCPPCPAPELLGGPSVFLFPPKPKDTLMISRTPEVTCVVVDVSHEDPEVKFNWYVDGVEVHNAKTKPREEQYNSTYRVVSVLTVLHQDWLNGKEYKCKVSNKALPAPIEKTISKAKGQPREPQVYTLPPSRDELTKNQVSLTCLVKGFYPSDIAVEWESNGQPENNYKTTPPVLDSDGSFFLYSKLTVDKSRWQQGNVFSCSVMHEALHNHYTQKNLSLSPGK
light: DIVMTQTPLSLSVTPGQPASISCKSSQSLLYSNGKTYLNWLLQKPGQSPQRLIYLVSKLDSGVPDRFSGSGSGTDFTLKISRVEAEDVGVYYCVQGTHLHTFGQGTRLEIKRTVAAPSVFIFPPSDEQLKSGTASVVCLLNNFYPREAKVQWKVDNALQSGNSQESVTEQDSKDSTYSLSSTLTLSKADYEKHKVYACEVTHQGLSSPVTKSFNRGEC
In the experiment with CD-52 peptide 741 [5], B8 had a dissociation constant Kd of 1.84 nM.

B9: S298N/Y300S (antibody)
heavy: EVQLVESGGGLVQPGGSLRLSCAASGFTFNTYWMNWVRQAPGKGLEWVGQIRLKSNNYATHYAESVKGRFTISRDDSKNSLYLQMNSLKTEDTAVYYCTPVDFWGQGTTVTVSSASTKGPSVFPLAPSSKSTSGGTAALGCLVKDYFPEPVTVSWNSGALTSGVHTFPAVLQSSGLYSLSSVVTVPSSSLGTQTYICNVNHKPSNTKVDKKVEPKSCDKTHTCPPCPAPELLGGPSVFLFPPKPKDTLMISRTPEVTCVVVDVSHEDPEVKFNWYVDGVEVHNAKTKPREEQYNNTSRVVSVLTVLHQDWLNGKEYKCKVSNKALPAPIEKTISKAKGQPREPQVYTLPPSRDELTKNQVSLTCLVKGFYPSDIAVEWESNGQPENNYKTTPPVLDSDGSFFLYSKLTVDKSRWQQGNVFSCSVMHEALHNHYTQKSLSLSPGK
light: DIVMTQTPLSLSVTPGQPASISCKSSQSLLYSNGKTYLNWLLQKPGQSPQRLIYLVSKLDSGVPDRFSGSGSGTDFTLKISRVEAEDVGVYYCVQGTHLHTFGQGTRLEIKRTVAAPSVFIFPPSDEQLKSGTASVVCLLNNFYPREAKVQWKVDNALQSGNSQESVTEQDSKDSTYSLSSTLTLSKADYEKHKVYACEVTHQGLSSPVTKSFNRGEC
As for B9, the dissociation constant (Kd) with CD-52 peptide 741 [5] worked out at 1.8 nM.
